This is an account of results in US20220396614A1 (DEUTSCHES KREBSFORSCHUNGSZENTRUM, published 2022).

The target of this assay is Plasmodium falciparum circumsporozoite protein (PfCSP) on Pf NF54 salivary gland sporozoites (Plasmodium falciparum (NF54)). Description: cell-based or functional assay.

B1: monoclonal antibody 2541 (antibody, V domains shown)
VH: QVQLVESGGGVVQPGRSLRLSCAASGFTFSSYGMHWVRQTTGKGLEWVAIIWHDGSKKYYADSVKGRLTISRDNSKNTLYLQMNSLRVEDTALYYCARVGDYSDFKYGAFDIWGQGTMVTVSS
VL: DIQMTQSPSTLSASVGDRVTITCRASQSISSWLAWYQQKPGKAPNLLIYKASTLESGVPSRFSGSGSGTEFTLTISSLQPDDFATYYCQQYNSYWTFGQGTRVEIK
For the molecule B1, the “IC50, in vitro Pf-traversal inhibition assay” value was less than 1 µg/mL.
